The source of these data is ChEMBL document CHEMBL1148676, “Fluorogenic ester substrates to assess proteolytic activity” (Bioorg Med Chem Lett, 2006).

In data set [1] the target is Cathepsin B (Homo sapiens) (UniProt P07858). The experiment in a line: (§1) Affinity to cathepsin B.
The test system of data set [2] is CC[C@H](NC(=O)OCC1c2ccccc2-c2ccccc21)C(=O)Oc1ccc2c(c1)Oc1cc(OC)ccc1C21OC(=O)c2ccccc21. Described as §1. To be noted: Homo sapiens.
The subject of data set [3] is CC[C@H](NC(=O)OC(C)(C)C)C(=O)Oc1ccc2c(c1)Oc1cc(OC)ccc1C21OC(=O)c2ccccc21. The description is as §1. To be noted: Homo sapiens.
Data set [4] deals with COc1ccc2c(c1)Oc1cc(OC(=O)CNC(=O)OCC3c4ccccc4-c4ccccc43)ccc1C21OC(=O)c2ccccc21. Described as §1. The conditions noted are these: Homo sapiens.
Data set [5] concerns COc1ccc2c(c1)Oc1cc(OC(=O)[C@H](C)NC(=O)OCC3c4ccccc4-c4ccccc43)ccc1C21OC(=O)c2ccccc21. Described as §1. The conditions noted are these: Homo sapiens.
Data set [6] deals with COc1ccc2c(c1)Oc1cc(OC(=O)[C@H](C)NC(=O)OC(C)(C)C)ccc1C21OC(=O)c2ccccc21. The description is as §1. To be noted: Homo sapiens.
Data set [7] relates to COc1ccc2c(c1)Oc1cc(OC(=O)[C@H](CC(C)C)NC(=O)OC(C)(C)C)ccc1C21OC(=O)c2ccccc21. Described as §1. The conditions noted are these: Homo sapiens.

The source made the active and inactive calls. No cut-off for these calls is given here.

As to `COc1ccc2c(c1)Oc1cc(OC(C)=O)ccc1C21OC(=O)c2ccccc21` (centres undefined), the result in data set [1] was inactive.
Consider `COc1ccc2c(c1)Oc1cc(OS(=O)(=O)c3ccc(C)cc3)ccc1C21OC(=O)c2ccccc21` (centres undefined), for which, in data set [1], the outcome was inactive.
`COc1ccc2c(c1)Oc1cc(OS(=O)(=O)c3ccc([N+](=O)[O-])cc3)ccc1C21OC(=O)c2ccccc21` (centres undefined): in data set [1], the outcome was inactive.
Regarding “Cathepsin B (Homo sapiens) (from UniProt P07858)”, the Michaelis constant (Km) in data set [2] amounted to 7.2 µM; in data set [3] it was 2.2 µM; in data set [4], 7.9 µM; in data set [5], 7.6 µM; in data set [6] it was 4.5 µM; in data set [7], 2.7 µM.

What is called Km is the substrate concentration at which the rate is half of its maximum.
